The RNAGym collection of RNA variant scans (doi:10.1073/pnas.2313332121)

B1: TPR t1 (parent)
chain: GACCAAUCUGCCCUCAGAGCUCGAGAACAUCUUCGGAUGCAGAGGAGGCAGGCUUCGGUGGCGCGAUAGCGCCAACGUCCUCAACCUCCAAUGCAUCCCACCACAUGAUGAUGCCUGAAGAGCCUUGGUUUUUUG

Variants of: B1
Assay: polymerase ribozyme fitness, log enrichment relative to wild type (log ratio); higher = more active; in vitro selection for triplet polymerase activity
In short: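 Genotype fitness is the logarithm of its enrichment divided by wild-type enrichment, using inverse-variance-weighted averages of replicates. That logarithm is base 2. Enrichment was measured by Illumina sequencing of input and output libraries from one triplicate in vitro selection round, with frozen incubation at −7 °C, on PCR-built, transcribed mutant libraries of each subunit of a heterodimeric triplet polymerase ribozyme, retaining genotypes with ≥10 input reads and ≥1 read per output.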
For A5G A16C A41G C62U, the “polymerase ribozyme fitness (log ratio)” value was -2.75.
With A5C A16C G44C the “polymerase ribozyme fitness (log ratio)” value was -4.17.
With A5G A111G C123A G128U the “polymerase ribozyme fitness (log ratio)” value was -2.99.
For C4U C115A, the “polymerase ribozyme fitness (log ratio)” value was -1.18.
With A5C U9G C80U A90U U92A the “polymerase ribozyme fitness (log ratio)” value was -2.94.
For C4U C8G C13A U21G C70U G120C U132C, the “polymerase ribozyme fitness (log ratio)” value was -0.598.
With A5C A27C the “polymerase ribozyme fitness (log ratio)” value was -3.97.
With A5C G39A G69A G120C the “polymerase ribozyme fitness (log ratio)” value was -4.21.
For C4U G51A G61U C82G C88U G93C, the “polymerase ribozyme fitness (log ratio)” value was -5.15.
In the case of C4U C40U C62A, the “polymerase ribozyme fitness (log ratio)” value is reported as -2.28.
For A5C A50C A74U U96G, the “polymerase ribozyme fitness (log ratio)” value was -3.17.
For A5G A18G G44C G48C U55C U59G G117U, the “polymerase ribozyme fitness (log ratio)” value was -5.35.
With C4U A5G U38A C70U G120A the “polymerase ribozyme fitness (log ratio)” value was -1.12.
For C4U G48A G71U U106A, the “polymerase ribozyme fitness (log ratio)” value was -1.2.
With C4G U59A G71U C82A the “polymerase ribozyme fitness (log ratio)” value was -5.53.
In the case of A5G C8U U38G U106A C114A, the “polymerase ribozyme fitness (log ratio)” value is reported as -1.52.
In the case of A5G C79U, the “polymerase ribozyme fitness (log ratio)” value is reported as 0.091.
In the case of A5C G48U C49A C94A, the “polymerase ribozyme fitness (log ratio)” value is reported as -2.25.
In the case of C4U U7A G69A, the “polymerase ribozyme fitness (log ratio)” value is reported as -2.49.
For C4U A50C A74U C79G G117A, the “polymerase ribozyme fitness (log ratio)” value was -4.91.
For A5G A74G A118C, the “polymerase ribozyme fitness (log ratio)” value was -3.85.
With C4G U112G the “polymerase ribozyme fitness (log ratio)” value was -0.359.
For A5C G45U, the “polymerase ribozyme fitness (log ratio)” value was -1.36.
With C4U A27U C64U A95C A111C A118G the “polymerase ribozyme fitness (log ratio)” value was -6.19.
With A5C U9A C13U A74C G110C C123A the “polymerase ribozyme fitness (log ratio)” value was -5.77.
For C4U C20A A111G, the “polymerase ribozyme fitness (log ratio)” value was -4.75.
In the case of C4U C20A A111U, the “polymerase ribozyme fitness (log ratio)” value is reported as -2.94.
With A5G C13U A46U C56A the “polymerase ribozyme fitness (log ratio)” value was -0.813.
With C4U C15G C28U A121G the “polymerase ribozyme fitness (log ratio)” value was -2.9.
For C4U C22U, the “polymerase ribozyme fitness (log ratio)” value was -4.42.
For A5G A16U G61U A66C U129A, the “polymerase ribozyme fitness (log ratio)” value was -3.64.
With A5C U87G U96G C104U A121C the “polymerase ribozyme fitness (log ratio)” value was 0.96.
With C4U C15U A18G G113A the “polymerase ribozyme fitness (log ratio)” value was -3.08.
In the case of C4U C20U U59G C89G U112A U125A U131C, the “polymerase ribozyme fitness (log ratio)” value is reported as -2.82.
In the case of A5C C11A U54A C104U, the “polymerase ribozyme fitness (log ratio)” value is reported as -0.94.
With A5C C8U C62U the “polymerase ribozyme fitness (log ratio)” value was -0.266.
For C4U A100U, the “polymerase ribozyme fitness (log ratio)” value was -1.08.
In the case of A5G C56A G69A C86A, the “polymerase ribozyme fitness (log ratio)” value is reported as -3.95.
For A5C C64A U112C, the “polymerase ribozyme fitness (log ratio)” value was -6.42.
In the case of A5C C56G C79A U106A, the “polymerase ribozyme fitness (log ratio)” value is reported as -2.63.
With C4U A43U C70U the “polymerase ribozyme fitness (log ratio)” value was -3.47.
In the case of C4U A18C, the “polymerase ribozyme fitness (log ratio)” value is reported as -3.99.
With A5G A37C G58U G60U U87A the “polymerase ribozyme fitness (log ratio)” value was -1.82.
In the case of C4U C70U G77C, the “polymerase ribozyme fitness (log ratio)” value is reported as -1.36.
With C4U C56G A111U the “polymerase ribozyme fitness (log ratio)” value was -2.42.
For A5C A29G C49G C70A U92C G117U, the “polymerase ribozyme fitness (log ratio)” value was -7.38.
With A5C C15G G57U the “polymerase ribozyme fitness (log ratio)” value was -3.53.
With A5G C13A C53U U59G the “polymerase ribozyme fitness (log ratio)” value was -1.69.
For A5G C8U G63U C70A C86G, the “polymerase ribozyme fitness (log ratio)” value was 0.268.
For A5C U96A A121C, the “polymerase ribozyme fitness (log ratio)” value was 0.399.
For A5C U9A C40U G63U G135U, the “polymerase ribozyme fitness (log ratio)” value was -2.96.
In the case of A5C A27U C73U C123U G128A, the “polymerase ribozyme fitness (log ratio)” value is reported as -3.34.
With C4U C11A C76U C82G G110U the “polymerase ribozyme fitness (log ratio)” value was -5.02.
With C4U C72U G117C the “polymerase ribozyme fitness (log ratio)” value was -4.14.
In the case of C4U A75U A95C U96A G120A, the “polymerase ribozyme fitness (log ratio)” value is reported as -1.94.
For A5C C12A G61U G113C, the “polymerase ribozyme fitness (log ratio)” value was -2.74.
With A5C G10A C34A C123U the “polymerase ribozyme fitness (log ratio)” value was -0.78.
With C4U G71A U87A C97U the “polymerase ribozyme fitness (log ratio)” value was -1.86.
In the case of C4U C8A C53U G69U U96G G128C, the “polymerase ribozyme fitness (log ratio)” value is reported as -1.46.
For A5C C13U, the “polymerase ribozyme fitness (log ratio)” value was -0.876.
For A5G C8U A121C, the “polymerase ribozyme fitness (log ratio)” value was 1.12.
In the case of A5C G69A, the “polymerase ribozyme fitness (log ratio)” value is reported as -3.11.
With A5C G69C the “polymerase ribozyme fitness (log ratio)” value was -1.74.
For A5C U129A, the “polymerase ribozyme fitness (log ratio)” value was -0.548.
In the case of A5G C80A, the “polymerase ribozyme fitness (log ratio)” value is reported as -2.34.
In the case of A5C C8G C11A A37U C123U, the “polymerase ribozyme fitness (log ratio)” value is reported as 0.423.
In the case of A5G C11A C70A G71A A121C G122U G127A, the “polymerase ribozyme fitness (log ratio)” value is reported as -3.67.
In the case of A5C C11G U87G C89A G120C, the “polymerase ribozyme fitness (log ratio)” value is reported as -0.971.
In the case of A5G A6C, the “polymerase ribozyme fitness (log ratio)” value is reported as -0.0257.
With A5C G63U the “polymerase ribozyme fitness (log ratio)” value was -1.6.
For C4U G52U G61C C124G U131G, the “polymerase ribozyme fitness (log ratio)” value was -0.648.
With A5G A24G A29C G36C G61A C70U G113A the “polymerase ribozyme fitness (log ratio)” value was -5.67.
In the case of A5C G63C A75C C94A G113C G122U, the “polymerase ribozyme fitness (log ratio)” value is reported as -4.55.
With A5C C62U C115A the “polymerase ribozyme fitness (log ratio)” value was -1.14.
With C4U A41G C62A A84C C115U the “polymerase ribozyme fitness (log ratio)” value was -4.65.
With C4U C12A A66C C70A the “polymerase ribozyme fitness (log ratio)” value was -5.72.
With A5C C82A C101G the “polymerase ribozyme fitness (log ratio)” value was -3.77.
With A5C U92A C101U C115A U133G the “polymerase ribozyme fitness (log ratio)” value was -4.61.
With A5G C13U A43U G71A C124U the “polymerase ribozyme fitness (log ratio)” value was -1.48.
For A5C U14C G60U A100C G135U, the “polymerase ribozyme fitness (log ratio)” value was -4.82.
For C4U A37U G48U C73G C98A U106G U112A, the “polymerase ribozyme fitness (log ratio)” value was -5.16.
In the case of C4U A27U, the “polymerase ribozyme fitness (log ratio)” value is reported as -2.79.
With A5G C72A C73U U81G U106G A118U A121C the “polymerase ribozyme fitness (log ratio)” value was -5.16.
For C4U G36C G63A G69U G120A G127A, the “polymerase ribozyme fitness (log ratio)” value was -0.365.
